Source: US20200347384

Columns and labels:
[1] = target: T1, HIV-1 reverse transcriptase (HIV RT) (Human immunodeficiency virus) (UniProt P03366+P03366); test: MST; settings: TNA at all positions; triplicate
[2] = target: T1, HIV-1 reverse transcriptase (HIV RT) (Human immunodeficiency virus); test: EMSA; settings: TNA at all positions; ~500 pM after 1 h 37 C with snake venom phosphodiesterase (p160)

For “AATAGTAAATTGATTTAAAAATTTCATAAATGCTACATAA [HIV-RT 3.17]”, the Kd [1] was 0.38 nM and the Kd [2] was 0.196 nM.
